Measured values taken from patent US20220251595A1, “ENGINEERED ATRLP23 PATTERN RECOGNITION RECEPTORS AND METHODS OF USE” (priority 2019, published 2022).

Tested on: corn protoplasts
Test: Calcium burst in transiently transfected corn protoplasts, R-GECO1.2 fluorescence reporter
Type: cell-based, Zea mays
Details: Example 3, FIG. 4; 1 μM PpNLP20; 40 minutes; 384-well
Source text: Following ligand (also known as elicitor) binding, PRRs are activated and induce a transient increase of cytosolic Ca^2+ concentration as part of a PTI response. […] In a high-throughput method, the kinetics of PRR-dependent transient variation of cytosolic Ca^2+ concentration can be measured with a fluorimeter or luminometer and in microplate formats of 96 or 384 wells.
Fluorescence was monitored using a fluorimeter equipped with a 100 Hz xenon flash lamp with excitation at 556 nm and emission measured at 585 nm for 100 ms, every 22.6 seconds for 42 minutes.
All of the AtRLP23 constructs have an operably linked 2×35S+Ω promoter construct (SEQ ID NO: 72) and an operably linked rbcS terminator (SEQ ID NO: 73)
Fluorescence was monitored using a fluorimeter equipped with a 100 Hz xenon flash lamp with excitation at 556 nm and emission measured at 585 nm for 30 ms, every 20.2 seconds for 40 minutes. For each fluorescence measurement, the transient change in R-GECO1.2 fluorescence (ΔF) are calculated from background corrected intensity values as (F-Fo), where F represents the average fluorescence intensity of the a batch of protoplasts treated with elicitor, and Fo represents the average fluorescence intensity of the same batch of protoplasts treated with a control solution that lacks the elicitor but is otherwise identical or essentially identical in composition to the solution comprising the elicitor.

B1: AtRLP23+TM-AtBAK1-3×FLAG: AtRLP23 apoplastic, eJM and TM domains, AtBAK1 cytoplasmic domain, 3×FLAG; SEQ ID NO: 37, 38 (protein)
chain: MSKALLHLHFLSLFLLCCVCHSSIFTLNFHFTGIVACRPHQIQAFTKFTNEFDTRGCNNSDTFNGVWCDNSTGAVAVLQLRKCLSGTLKSNSSLFGFHQLRYVDLQNNNLTSSSLPSGFGNLKRLEGLFLSSNGFLGQVPSSFSNLTMLAQLDLSYNKLTGSFPLVRGLRKLIVLDLSYNHFSGTLNPNSSLFELHQLRYLNLAFNNFSSSLPSKFGNLHRLENLILSSNGFSGQVPSTISNLTRLTKLYLDQNKLTSSFPLVQNLTNLYELDLSYNKFFGVIPSSLLTLPFLAHLALRENNLAGSVEVSNSSTSSRLEIMYLGSNHFEGQILEPISKLINLKHLDLSFLNTSYPIDLKLFSSLKSLRSLDLSGNSISSASLSSDSYIPLTLEMLTLRHCDINEFPNILKTLKELVYIDISNNRMKGKIPEWLWSLPLLQSVTLGNNYFTGFQGSAEILVNSSVLLLYLDSNNFEGALPDLPLSIKGFGVASNSFTSEIPLSICNRSSLAAIDLSYNNFTGPIPPCLRNLELVYLRNNNLEGSIPDALCDGASLRTLDVSHNRLTGKLPRSFVNCSSLKFLSVINNRIEDTFPFWLKALPNLQVLTLRSNRFYGPISPPHQGPLGFPELRIFEISDNKFTGSLPPNYFVNWKASSRTMNQDGGLYMVYEEKLFDEGGYGYTDALDLQYKGLHMEQAKALTSYAAIDFSGNRLEGQIPESIGLLKALIAVNISNNAFTGHIPLSMANLENLESLDMSRNQLSGTIPNGLGSISFLAYINVSHNQLTGEIPQGTQITGQSKSSFEGNAGLCGLPLKESCFGTGAPPMYHQKQEDKEEEEEEEEEEEEVLNGRAVAIGYGSGLLLGLAIAQVIASYRRKKPQDHFFDVPAEEDPEVHLGQLKRFSLRELQVASDNFSNKNILGRGGFGKVYKGRLADGTLVAVKRLKEERTQGGELQFQTEVEMISMAVHRNLLRLRGFCMTPTERLLVYPYMANGSVASCLRERPESQPPLDWPKRQRIALGSARGLAYLHDHCDPKIIHRDVKAANILLDEEFEAVVGDFGLAKLMDYKDTHVTTAVRGTIGHIAPEYLSTGKSSEKTDVFGYGVMLLELITGQRAFDLARLANDDDVMLLDWVKGLLKEKKLEALVDVDLQGNYKDEEVEQLIQVALLCTQSSPMERPKMSEVVRMLEGDGLAERWEEWQKEEMFRQDFNYPTHHPAVSGWIIGDSTSQIENEYPSGPRSDYKDHDGDYKDHDLDAAAADYKDDDDK
modifications: Fusion protein
responsiveness to PpNLP20 treatment compared to AtRLP23-3×FLAG (total transient increase of fluorescence): reduced responsiveness
